Usually Km stands for the substrate concentration at which the rate is half of its maximum.

The values below come from US7214519B2, “Screening method for identifying heme independent modulators of soluble guanylyl cyclase (sGC) activity using αβCys105 mutant sGC” (Board of Regents of the University of Texas System, priority 2003, dated 2007).

The target of data set [1] is T1, αβ^Cys105 mutant sGC (Homo sapiens, UniProt Q02108+Q02153, H105C).
T1 construct: made in house; host or cells: Sf9 cells (baculovirus)
T1 sequence (Q02153 1-619 H105C): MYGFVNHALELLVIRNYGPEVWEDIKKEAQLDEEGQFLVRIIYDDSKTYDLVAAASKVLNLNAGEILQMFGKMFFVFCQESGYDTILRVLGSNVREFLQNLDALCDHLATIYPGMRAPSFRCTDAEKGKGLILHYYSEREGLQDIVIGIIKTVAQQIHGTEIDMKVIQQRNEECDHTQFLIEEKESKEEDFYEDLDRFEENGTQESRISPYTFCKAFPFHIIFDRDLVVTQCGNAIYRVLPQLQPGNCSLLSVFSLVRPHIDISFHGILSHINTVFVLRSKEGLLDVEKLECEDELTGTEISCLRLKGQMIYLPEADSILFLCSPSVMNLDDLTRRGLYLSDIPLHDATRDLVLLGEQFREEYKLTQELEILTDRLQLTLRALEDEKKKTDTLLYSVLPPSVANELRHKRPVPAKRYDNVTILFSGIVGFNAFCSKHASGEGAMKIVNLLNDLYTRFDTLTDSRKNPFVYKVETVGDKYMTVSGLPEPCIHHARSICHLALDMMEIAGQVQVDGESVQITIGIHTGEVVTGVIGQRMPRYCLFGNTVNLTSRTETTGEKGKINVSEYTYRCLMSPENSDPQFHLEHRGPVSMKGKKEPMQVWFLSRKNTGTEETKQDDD
T1 sequence (Q02108 1-690): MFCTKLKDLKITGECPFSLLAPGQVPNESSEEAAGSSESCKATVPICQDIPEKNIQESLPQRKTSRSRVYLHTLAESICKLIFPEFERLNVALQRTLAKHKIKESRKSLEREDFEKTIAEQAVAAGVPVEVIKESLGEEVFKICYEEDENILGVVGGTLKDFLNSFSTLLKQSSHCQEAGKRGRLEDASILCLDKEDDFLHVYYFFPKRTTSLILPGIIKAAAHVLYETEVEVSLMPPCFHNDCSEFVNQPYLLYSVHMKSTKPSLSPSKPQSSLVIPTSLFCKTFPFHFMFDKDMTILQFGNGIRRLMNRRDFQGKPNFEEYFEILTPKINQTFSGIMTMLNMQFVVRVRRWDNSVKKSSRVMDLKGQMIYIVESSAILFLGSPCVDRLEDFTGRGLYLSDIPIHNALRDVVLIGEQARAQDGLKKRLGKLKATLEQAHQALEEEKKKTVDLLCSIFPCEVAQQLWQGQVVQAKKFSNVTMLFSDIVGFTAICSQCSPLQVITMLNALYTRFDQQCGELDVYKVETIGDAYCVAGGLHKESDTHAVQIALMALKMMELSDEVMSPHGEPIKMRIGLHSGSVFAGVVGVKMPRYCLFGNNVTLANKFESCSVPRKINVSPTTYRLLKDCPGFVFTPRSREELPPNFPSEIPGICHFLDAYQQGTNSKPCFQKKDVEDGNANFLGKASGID
Briefly: Assay of sGC activity ([32P]cGMP formation from GTP), purified αβ^Cys105 mutant enzyme. The format is biochemical. To be noted: for PPIX activation, fold: 1 μM PPIX; for sensitivity to SNP after addition of hemin: absence of DTT. The procedure: (§1) sGC Expression and Purification. […] Purification of sGC was performed as described earlier (26), the disclosure of which is hereby incorporated herein by reference, with the following modifications. Cells were harvested 72 h post infection, resuspended in loading buffer (25 mM triethanolamine, pH 7.5. 10 glycerol, 4 mM MgCl2 and 1 mM phenylmethylsulfonyl fluoride, and 5 μg/ml each of pepstatin A, leupeptin, aprotinin, and chymostatin,) and lysed by sonication. The lysate was subjected to 100,000×g centrifugation for 1 h. The high-speed supernate was loaded on a 60 ml DEAE-Sepharose (Amersham Pharmacia Biotech) column and washed with 60 ml of loading buffer without protease inhibitors. The proteins were eluted with loading buffer containing 250 mM NaCl and the eluate was directly loaded on a 30 ml His-Bind resin (Novagen) column. The column was washed with 60 ml of loading buffer followed by 60 ml of loading buffer with 45 mM imidazole. The enzyme was eluted with 175 mM imidazole and 2 ml fractions were collected. […] The enzyme at this stage was approximately 90–95% pure. To remove imidazole, sGC-containing fractions were diluted 3 fold with 25 mM triethanolamine pH 7.5, loaded on a 2 ml Hi-Trap DEAE-Sepharose column (Amersham Pharmacia Biotech), washed with 10 ml of loading buffer and eluted with 25 mM triethanolamine pH 7.5, 250 mM NaCl, 10 glycerol, 4 mM MgCl2, 0.5 mM EDTA, 0.5 mM EGTA. The enzyme obtained at this stage (95% or greater purity) was used for experiments.
(§2) Assay of sGC Activity. Enzyme activity was assayed by formation of [^32P] cGMP from α[^32P]GTP at 37° C. in a final volume of 100 μl. Incubation medium contained 50 mM triethanolamine-HCl buffer (pH 7.4), 1 mM 3-isobutyl-1-methylxanthine (IBMX), 1 mg/ml BSA. 1 mM cGMP, 3 mM MgCl2, 0.05 mg/ml creatine phosphokinase, 5 mM creatine phosphate, 0.1 mM EGTA. 200 μM GTP (about 10.000 cpm/pmol). The reaction was started by addition of the substrate (GTP) with or without activators. 1 mM DTT, GSH or cysteine were added to the incubation medium before the addition of GTP. Thiol concentration varied in some experiments as indicated. Samples containing 0.2 μg sGC were incubated for 10 or 15 min and the reaction was stopped by addition of 500 μl 150 mM zinc acetate and 500 μl 180 mM sodium carbonate. The pellet of zinc carbonate containing most of the unreacted GTP was removed by centrifugation and the supernatant fractions were loaded onto columns filled with 1 g of neutral alumina. Columns were then eluted with 10 ml 0.1 M Tris-HCl buffer (pH 7.5) and Cherenkov radiation in flow through plus eluate was counted in a LKB liquid scintillation spectrometer. Samples incubated in the absence of sGC were used as a negative control. The concentration of dimethylsulfoxide (DMSO) used as a vehicle for YC-1 was not higher than 0.1 and had no effect on sGC activity as determined previously.

In data set [2] the target is T2, Sf9 cells expressing αβ^Cys105 sGC (Homo sapiens, UniProt Q02108+Q02153, H105C).
T2 construct: expressed in transfected cells; host or cells: Sf9 cells infected with baculoviruses
T2 sequence (Q02153 1-619 H105C): T1 sequence (Q02153 1-619 H105C)
T2 sequence (Q02108 1-690): T1 sequence (Q02108 1-690)
Briefly: cGMP accumulation in intact Sf9 cells expressing αβ^Cys105 sGC. The format is cell-based. The procedure:
(§3) Assay of cGMP Accumulation in Intact Cells. […] The reaction was terminated by addition of 50 μl of 1 M perchloric acid and cGMP was extracted on ice for 1 h. The extract was centrifuged, neutralized with 2M K2CO3 and used for cGMP determination by radioimmunoassay (9, 27). The pellet was dissolved in 0.1 M NaOH and used for protein assay by the method of Lowry (28).
(§4) Accumulated cGMP was extracted and quantified as described in Materials and Methods. Values are shown as means±s.d. The differences in intracellular accumulation of cGMP in Sf9 cells expressing the wild type enzyme or the mutant form are discussed below.

The target of data set [3] is T3, wild type sGC (Homo sapiens, UniProt Q02108+Q02153).
T3 construct: made in house; host or cells: Sf9 cells (baculovirus)
T3 sequence (Q02153 1-619): T1 sequence (Q02153 1-619 H105C) with C105H
T3 sequence (Q02108 1-690): T1 sequence (Q02108 1-690)
The experiment in a line: Assay of sGC activity ([32P]cGMP formation from GTP), purified wild type enzyme. It counts as biochemical. As for the experimental part: as §1, §2

The target in data set [4] is T4, Sf9 cells expressing wild type sGC (Homo sapiens, UniProt Q02108+Q02153).
T4 construct: expressed in transfected cells; host or cells: Sf9 cells infected with baculoviruses
T4 sequence (Q02153 1-619): T1 sequence (Q02153 1-619 H105C) with C105H
T4 sequence (Q02108 1-690): T1 sequence (Q02108 1-690)
The experiment in a line: cGMP accumulation in intact Sf9 cells expressing wild type sGC. It counts as cell-based. Conditions: basal, 0.5 mM IBMX. The procedure: as §3, §4

For data set [5], the target named is T3, wild type sGC. Conditions: cited from earlier work.
The target of data set [6] is T1, αβ^Cys105 mutant sGC. The experiment in a line: Heme reconstitution of DTT-treated αβ^Cys105 enzyme followed by UV-Vis spectroscopy. The format is binding. To be noted: data not shown. As for the experimental part: UV-Vis Spectroscopy. All absorbance measurements were recorded with a dual-beam Cecil 9500 spectrophotometer at 25° C. […] Hemin stock solution (5 mM) was prepared in DMSO and was reduced by dilution in 25 mM TEA, pH 7.5 containing 5 mM DTT to a working solution of 500 μM. The reduced heme was kept under argon in a gas-tight vial during the reconstitution.
The enzyme reconstituted with 10 μM hemin was subjected to gel filtration (after GF) or treated for 15 min with 50 μM NOC-7 (with NO) and the spectra recorded, as shown in FIG. 5D.

Residue numbers refer to the chain shown, from its start. Values joined by “and” are separate entries in the source; they are usually repeats but may differ in a detail not shown here. Equal entries are not always repeated. Where two headings read alike, the source gives them in different places.

In the case of “αβ^Cys105: heme-deficient, constitutively active human soluble guanylyl cyclase mutant; β subunit carries His105→Cys substitution”, the Km is 153 ± 11 µM with αβ^Cys105 mutant sGC [1] (+DTT); ~150 µM and 150 µM with αβ^Cys105 mutant sGC [1] (No DTT). Besides, the “PPIX activation, fold” value is 5.4 fold in the data set with αβ^Cys105 mutant sGC [1] (+DTT) and 1.8 fold with αβ^Cys105 mutant sGC [1] (No DTT). Moreover, the Specific activity with αβ^Cys105 mutant sGC [1] (+NO, with DTT, after heme reconstitution) was 0.44 ± 0.08 µmol/min/mg; with αβ^Cys105 mutant sGC [1] (+NO, without DTT, after heme reconstitution), 1.2 ± 0.2 µmol/min/mg; in the data set with αβ^Cys105 mutant sGC [1] (Basal, with DTT (1 mM)), 0.12 ± 0.01 µmol/min/mg; with αβ^Cys105 mutant sGC [1] (Basal, without DTT), 1.2 ± 0.3 µmol/min/mg; with αβ^Cys105 mutant sGC [1] (absence of thiols, n=4 independent purifications) it was 0.0012 ± 0.0003 µmol/min/mg; with αβ^Cys105 mutant sGC [1] (sample without any thiols (FIG. 1B, defined as 100)), 1e-06 ± 1e-07 µmol/min/mg. Further, the “basal cGMP accumulation relative to NO-activated cells overexpressing wild type enzyme” value in data set [2] is listed as “about ten times higher”. Besides, the “basal level of cGMP accumulation” value in data set [2] (basal, 0.5 mM IBMX) was 33 nmol/mg/5 min.
For “Wild Type: recombinant wild type human soluble guanylyl cyclase expressed in Sf9 cells”, the “PPIX activation, fold” value with wild type sGC [3] (+DTT) was 14 fold; with wild type sGC [3] (No DTT), 6 fold. Besides, the Specific activity in the data set with wild type sGC [3] (+NO (SNP), with DTT (1 mM)) stood at 1.45 ± 0.1 µmol/min/mg; with wild type sGC [3] (+NO (SNP), with DTT (1 mM), listed as wild type), 1.4 µmol/min/mg; with wild type sGC [3] (+NO, without DTT), 1.41 ± 0.2 µmol/min/mg; with wild type sGC [3] (Basal, with DTT (1 mM)), 0.02 ± 0.01 µmol/min/mg; with wild type sGC [3] (Basal, with DTT (1 mM), listed as Wild type), 0.02 µmol/min/mg; in the data set with wild type sGC [3] (Basal, with DTT (1 mM), listed as wild type) it was 0.02 µmol/min/mg. Besides, the Specific activity was found to be 0.05 ± 0.02 µmol/min/mg with wild type sGC [3] (Basal, without DTT) and 0.05 µmol/min/mg in the data set with wild type sGC [3] (Basal, without DTT, listed as Wild type). In the data set with wild type sGC [3] (with DTT), the “fold activation by NO” value is recorded as “(72.5) fold”. Further, in data set [4], the “rate of cGMP accumulation” value was found to be 0.9 nmol/mg/5 min. Besides, the Km with wild type sGC [5] (Basal, read-out: GTP-Km) was 65 to 448 µM; in the data set with wild type sGC [5] (NO, read-out: GTP-Km), 11 to 134 µM; in the data set with wild type sGC [5] (literature (12, 30–32), read-out: range of GTP-Km measured for the recombinant sGC), 65 to 450 µM. Besides, the “specific activity after exposure to NO” value with wild type sGC [5] (recombinant wild type human sGC, previous studies) is approximately 1.5 µmol/min/mg.
For the substance Hemin [reference compound], the “sensitivity to SNP after addition of hemin” value at αβ^Cys105 mutant sGC [1] (1 μM hemin) is “did not confer any sensitivity to SNP”; at αβ^Cys105 mutant sGC [1] (10 μM hemin, data not shown), “did not have any significant effect”. In addition, the “NO-activation upon addition of hemin” value at αβ^Cys105 mutant sGC [1] (presence of 1 mM DTT) is reported as “partially restored its NO-activation”. The “molar excess of reduced hemin at which binding is saturated” value at αβ^Cys105 mutant sGC [6] stood at 13 fold molar excess.
